Molecular target: mature TGFβ1 produced in Nicotiana benthamiana (human)
Experiment: non-reducing Tricine-PAGE with Western blot; mature TGFβ1 released by HCl, 10% Tricine-PAGE under reducing or non-reducing conditions, anti-TGFβ1 blot

Question: How did the stoichiometry N turn out when “mature TGFβ1 produced in Nicotiana benthamiana (ligand)” was run?
Answer: 2

From PMC9197560
